Experimental data reported in US20090105116A1.
One block for each substance: values may come before it.

How the values were obtained:
human α-thrombin (human) [1] = target: human α-thrombin (human) (UniProt P00734); experiment: cell-based or functional assay
[2] = target: P3182, Bbs-R-(D-Pip)-Gly-Glu-Gln-Lys-Leu-Ile-Ser-Glu-Glu-Asp-Leu-Gly-Asp-Phe-Glu-Glu-Ile-Pro-Glu-Glu-Tyr-Leu-Gln; experiment: cell-based or functional assay
human α-thrombin (human) [3] = target: human α-thrombin (human) (UniProt P00734); experiment: amidolytic assay with chromogenic substrate S-2238, Lineweaver-Burk, 25° C.

Chain of P3182, Bbs-R-(D-Pip)-Gly-Glu-Gln-Lys-Leu-Ile-Ser-Glu-Glu-Asp-Leu-Gly-Asp-Phe-Glu-Glu-Ile-Pro-Glu-Glu-Tyr-Leu-Gln (peptide, as listed by the source, form in doubt): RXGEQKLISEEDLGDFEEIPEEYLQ

Substance: P3291, Bbs-Arg-dPip-Gly-Arg-Lys-Ser-Leu-Thr-Ile-Tyr-Ala-Gln-Val-Gln-Lys-Gly-Asp-Phe-Glu-Glu-Ile-Pro-Glu-Glu-Tyr-Leu-Gln (peptide)
- IC50, nM, fibrinogen clotting assay (the text says 25° C.) (human α-thrombin (human) [1]): 7 nM

Substance: anti-c-myc antibody 9E10 (Sigma)
- clotting onset time with 150 nM peptide, 0.6 nM thrombin and 1.2 µM antibody [2]: 230 s

Substance: P3170, Bbs-R-(D-Pip)-Gly-(Ser-Pro-His-Tyr(P)-Glu-Lys-Val-Ser-Gly)-Asp-Phe-Glu-Glu-Ile-Pro-Glu-Glu-Tyr-Leu-Gln (peptide)
- IC50, nM (25° C.), fibrinogen clotting assay (human α-thrombin (human) [1]): 0.7 nM
- Ki (human α-thrombin (human) [3]): 1.5 nM

Second part, the substance after the results:

- IC50, nM (37° C.), fibrinogen clotting assay (human α-thrombin (human) [1]): 1.1 nM
Substance: P3172-P3165, disulfide-linked Bbs-Arg-(D-Pip)-Gly-Cys...Cys-(Gly-Ser)8-Gly-Asp-Phe-Glu-Glu-Ile-Pro-Glu-Glu-Tyr-Leu-Gln (peptide)

- IC50, nM (25° C.), fibrinogen clotting assay (human α-thrombin (human) [1]): 19 nM
Substance: P3162, Bbs-R-(D-Pip)-Gly-(Ser-Pro-His-Tyr(P)-Glu-Lys-Val-Ser-Gly)2-Asp-Phe-Glu-Glu-Ile-Pro-Glu-Glu-Tyr-Leu-Gln (peptide)
